Data reported in patent US20240255503A1 (UNIVERSITY OF NEWCASTLE UPON TYNE, published 2024).
Where a chain is given by its changes, count along the chain named. Names may count otherwise. Blank lines part the entries; values can stand above or below the binder they belong to.

Columns and labels:
[1] = target: C3b:FH1-4 complex (chip-bound C3b with co-injected WT FH1-4)
[2] = target: T1, C3b:FH1-4 complex (chip-bound C3b with co-injected WT FH1-4) (human, UniProt P01024 23-667; P01024 749-1663; P08603 19-263); experiment: SPR TMC building, 62.5 nM FI with 125 nM WT FH1-4 over amine-coupled C3b
T1 construct: Composite target for the FI variants in the trimolecular complex (TMC) building assay, made of m1 and m3; FI and FH1-4 were injected together over C3b; also called FH/C3b; FH-1-4/C3b

[3] = target: T2, Human C3b (wild type), immobilised on a CM5 sensor chip (human, UniProt P01024 23-667; P01024 749-1663); experiment: SPR steady-state affinity, FH19-20 20-0.156 µM over thioester-coupled WT C3b (899 RU); WT C3b on the chip, not the L1109V mutant
T2 construct: also called WT C3b; WT C3

[4] = target: T3, L1109V mutant C3b, immobilised on a CM5 sensor chip (human, UniProt P01024 23-667; P01024 749-1663); experiment: SPR steady-state affinity, FH19-20 20-0.156 µM over thioester-coupled L1109V C3b (898 RU); fitted KD from the same SPR run on L1109V C3b that the text calls a lack of binding
T3 construct: C3 purified from the serum of a homozygous aHUS patient and converted to C3b on the chip (898 RU, thioester coupled); also called L1109V C3b; variant C3b

[5] = target: T2, Human C3b (wild type), immobilised on a …; experiment: SPR steady-state affinity, FH1-4 20-0.156 µM over thioester-coupled WT C3b (899 RU)
[6] = target: T2, Human C3b (wild type), immobilised on a …; experiment: SPR steady-state affinity fit (BIAevaluation S200), WT FH1-4 over C3b immobilised on a CM5 chip
Description: Data was collected at 40 Hz and there was a 120s stabilisation period between each sample being injected.

[7] = target: T3, L1109V mutant C3b, immobilised on a CM5 …; experiment: SPR steady-state affinity, FH1-4 20-0.156 µM over thioester-coupled L1109V C3b (898 RU)
[8] = target: T2, Human C3b (wild type), immobilised on a …; experiment: SPR steady-state affinity fit (BIAevaluation S200), WT FH1-4 over thiol-coupled WT C3b (899 RU) on a CM5 chip, PBST [Continued]
[9] = target: T2, Human C3b (wild type), immobilised on a …; experiment: SPR affinity estimate (not steady state), FL-FH 250-7.8 nM over thioester-coupled WT C3b
Description: (§1) Dissociation constants (KD) are given under the graphs showing each concentration vs RU curve labelled with the appropriate variant.

[10] = target: T3, L1109V mutant C3b, immobilised on a CM5 …; experiment: SPR affinity estimate, FL-FH over thioester-coupled mutant and WT C3b
Description: as §1

[11] = target: T3, L1109V mutant C3b, immobilised on a CM5 …; experiment: SPR affinity fit (BIAevaluation), WT full length FH over thiol-coupled L1109V C3b (898 RU) on a CM5 chip, PBST; printed under both panels [Continued]
Description: as §1

T2 sequence (P01024 23-667 limits assumed, chain 1 of 2): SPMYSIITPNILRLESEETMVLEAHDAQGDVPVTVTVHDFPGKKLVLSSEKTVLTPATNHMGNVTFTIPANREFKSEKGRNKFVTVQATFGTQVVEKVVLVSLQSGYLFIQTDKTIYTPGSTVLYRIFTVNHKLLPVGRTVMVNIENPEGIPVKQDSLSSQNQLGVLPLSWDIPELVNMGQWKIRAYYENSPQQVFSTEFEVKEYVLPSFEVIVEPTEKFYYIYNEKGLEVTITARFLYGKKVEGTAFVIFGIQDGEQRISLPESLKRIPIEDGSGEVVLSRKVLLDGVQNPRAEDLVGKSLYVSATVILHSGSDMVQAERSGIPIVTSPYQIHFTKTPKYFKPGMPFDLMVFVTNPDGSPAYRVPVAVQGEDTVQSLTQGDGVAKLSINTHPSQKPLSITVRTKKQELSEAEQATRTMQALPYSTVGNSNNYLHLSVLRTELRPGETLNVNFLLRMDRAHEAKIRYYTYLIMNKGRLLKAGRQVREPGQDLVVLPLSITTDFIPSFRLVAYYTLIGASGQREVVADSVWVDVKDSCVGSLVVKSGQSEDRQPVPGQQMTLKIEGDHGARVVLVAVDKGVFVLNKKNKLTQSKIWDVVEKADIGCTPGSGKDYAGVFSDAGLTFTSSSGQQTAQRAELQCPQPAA
T2 sequence (P01024 749-1663 limits assumed, chain 2 of 2): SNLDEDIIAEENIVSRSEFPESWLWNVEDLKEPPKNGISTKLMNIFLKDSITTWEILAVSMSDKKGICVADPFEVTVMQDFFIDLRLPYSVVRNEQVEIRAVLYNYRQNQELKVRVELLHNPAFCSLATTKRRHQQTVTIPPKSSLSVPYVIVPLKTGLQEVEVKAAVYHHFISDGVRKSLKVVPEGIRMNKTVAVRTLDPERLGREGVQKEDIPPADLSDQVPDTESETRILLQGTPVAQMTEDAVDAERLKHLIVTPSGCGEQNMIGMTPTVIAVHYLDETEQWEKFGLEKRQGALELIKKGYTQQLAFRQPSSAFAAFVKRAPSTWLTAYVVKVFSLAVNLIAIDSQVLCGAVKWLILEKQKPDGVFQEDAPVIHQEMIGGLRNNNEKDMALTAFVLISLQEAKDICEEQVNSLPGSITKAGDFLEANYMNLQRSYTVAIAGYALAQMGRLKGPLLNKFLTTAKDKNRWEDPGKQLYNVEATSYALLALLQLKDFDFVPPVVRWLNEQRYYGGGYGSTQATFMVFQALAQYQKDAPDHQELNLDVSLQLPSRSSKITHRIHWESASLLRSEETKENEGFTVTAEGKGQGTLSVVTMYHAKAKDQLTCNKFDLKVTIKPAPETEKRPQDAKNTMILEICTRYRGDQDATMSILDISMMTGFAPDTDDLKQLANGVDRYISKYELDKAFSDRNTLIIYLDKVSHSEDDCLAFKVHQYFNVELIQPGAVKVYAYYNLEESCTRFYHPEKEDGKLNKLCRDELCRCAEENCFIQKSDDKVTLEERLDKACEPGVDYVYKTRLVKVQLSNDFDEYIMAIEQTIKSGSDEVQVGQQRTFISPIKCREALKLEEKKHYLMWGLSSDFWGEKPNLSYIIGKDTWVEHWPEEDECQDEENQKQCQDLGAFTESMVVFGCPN
T3 sequence (P01024 23-667 limits assumed, chain 1 of 2): as the sequence (P01024 23-667 limits assumed, chain 1 of 2) above
T3 sequence (P01024 749-1663 L1109V limits assumed, chain 2 of 2): as the sequence (P01024 749-1663 limits assumed, chain 2 of 2) above, with L361V counted along it
T1 sequence (P01024 23-667 limits assumed, chain 1 of 2): as the sequence (P01024 23-667 limits assumed, chain 1 of 2) above
T1 sequence (P01024 749-1663 limits assumed, chain 2 of 2): as the sequence (P01024 749-1663 limits assumed, chain 2 of 2) above

increase in response (RU) [2]: ~2 RU
B3: Y459S inactive (S525A) Complement Factor I (enzyme)
chain: KVTYTSQEDLVEKKCLAKKYTHLSCDKVFCQPWQRCIEGTCVCKLPYQCPKNGTAVCATNRRSFPTYCQQKSLECLHPGTKFLNNGTCTAEGKFSVSLKHGNTDSEGIVEVKLVDQDKTMFICKSSWSMREANVACLDLGFQQGADTQRRFKLSDLSINSTECLHVHCRGLETSLAECTFTKRRTMGYQDFADVVCYTQKADSPMDDFFQCVNGKYISQMKACDGINDCGDQSDELCCKACQGKGFHCKSGVCIPSQYQCNGEVDCITGEDEVGCAGFASVTQEETEILTADMDAERRRIKSLLPKLSCGVKNRMHIRRKRIVGGKRAQLGDLPWQVAIKDASGITCGGIYIGGCWILTAAHCLRASKTHRYQIWTTVVDWIHPDLKRIVIEYVDRIIFHENYNAGTYQNDIALIEMKKDGNKKDCELPRSIPACVPWSPSLFQPNDTCIVSGWGREKDNERVFSLQWGEVKLISNCSKFYGNRFYEKEMECAGTYDGSIDACKGDAGGPLVCMDANNVTYVWGVVSWGENCGKPEFPGVYTKVANYFDWISYHVGRPFISQYNV
notes: also called Y459S FI

Kd [3]: 9.92 µM
Kd [4]: ~358 µM
B4: Complement Factor H CCP domains 19-20 (WT FH CCP19-20) (other, human, UniProt P08603 1107-1231, looked up)
chain: GKCGPPPPIDNGDITSFPLSVYAPASSVEYQCQNLYQLEGNKRITCRNGQWSEPPKCLHPCVISREIMENYNIALRWTAKQKLYSRTGESVEFVCKRGYRLSSRSHTLRTTCWDGKLEYPTCAKR
notes: domain: CCP19-20; also called FH19-20

Kd [5]: 8.1 µM
Kd [6]: 10.1 µM
Kd [7]: 9.2 µM
Kd [8]: 8.09 µM
B5: Recombinant Human Complement Factor H CCPs 1-4 (6x His-tagged), wild type (other)
chain: EKREAEAAGEQKLISEEDLEDCNELPPRRNTEILTGSWSDQTYPEGTQAIYKCRPGYRSLGNVIMVCRKGEWVALNPLRKCQKRPCGHPGDTPFGTFTLTGGNVFEYGVKAVYTCNEGYQLLGEINYRECDTDGWTNDIPICEVVKCLPVTAPENGKIVSSAMEPDREYHFGQAVRFVCNSGYKIEGDEEMHCSDDGFWSKEKPKCVEISCKSPDVINGSPISQKIIYKENERFQYKCNMGYEYSERGDAVCTESGWRPLPSCEHHHHHH
notes: Produced in-house; also called FH1-4; WT FH1-4

Kd [9]: 0.28 µM
fold change of KD, mutant C3b against WT C3b [10]: 3.6 fold
Kd [11]: 1.01 µM
B6: Full Length Human Complement Factor H (FH) (other)
chain: EDCNELPPRRNTEILTGSWSDQTYPEGTQAIYKCRPGYRSLGNVIMVCRKGEWVALNPLRKCQKRPCGHPGDTPFGTFTLTGGNVFEYGVKAVYTCNEGYQLLGEINYRECDTDGWTNDIPICEVVKCLPVTAPENGKIVSSAMEPDREYHFGQAVRFVCNSGYKIEGDEEMHCSDDGFWSKEKPKCVEISCKSPDVINGSPISQKIIYKENERFQYKCNMGYEYSERGDAVCTESGWRPLPSCEEKSCDNPYIPNGDYSPLRIKHRTGDEITYQCRNGFYPATRGNTAKCTSTGWIPAPRCTLKPCDYPDIKHGGLYHENMRRPYFPVAVGKYYSYYCDEHFETPSGSYWDHIHCTQDGWSPAVPCLRKCYFPYLENGYNQNYGRKFVQGKSIDVACHPGYALPKAQTTVTCMENGWSPTPRCIRVKTCSKSSIDIENGFISESQYTYALKEKAKYQCKLGYVTADGETSGSITCGKDGWSAQPTCIKSCDIPVFMNARTKNDFTWFKLNDTLDYECHDGYESNTGSTTGSIVCGYNGWSDLPICYERECELPKIDVHLVPDRKKDQYKVGEVLKFSCKPGFTIVGPNSVQCYHFGLSPDLPICKEQVQSCGPPPELLNGNVKEKTKEEYGHSEVVEYYCNPRFLMKGPNKIQCVDGEWTTLPVCIVEESTCGDIPELEHGWAQLSSPPYYYGDSVEFNCSESFTMIGHRSITCIHGVWTQLPQCVAIDKLKKCKSSNLIILEEHLKNKKEFDHNSNIRYRCRGKEGWIHTVCINGRWDPEVNCSMAQIQLCPPPPQIPNSHNMTTTLNYRDGEKVSVLCQENYLIQEGEEITCKDGRWQSIPLCVEKIPCSQPPQIEHGTINSSRSSQESYAHGTKLSYTCEGGFRISEENETTCYMGKWSSPPQCEGLPCKSPPEISHGVVAHMSDSYQYGEEVTYKCFEGFGIDGPAIAKCLGEKWSHPPSCIKTDCLSLPSFENAIPMGEKKDVYKAGEQVTYTCATYYKMDGASNVTCINSRWTGRPTCRDTSCVNPPTVQNAYIVSRQMSKYPSGERVRYQCRSPYEMFGDEEVMCLNGNWTEPPQCKDSTGKCGPPPPIDNGDITSFPLSVYAPASSVEYQCQNLYQLEGNKRITCRNGQWSEPPKCLHPCVISREIMENYNIALRWTAKQKLYSRTGESVEFVCKRGYRLSSRSHTLRTTCWDGKLEYPTCAKR
notes: Bought (CompTech, A137); also called FL-FH; FLFH

More lines, now with the values behind:

B1: Inactive (S525A) Complement Factor I (protein)
chain: B3 chain with S441Y
cleavage of chip-bound C3b (SPR, convertase rebuilt before and after) [1]: Inactive (S525A) FI therefore demonstrated binding of the components of the AP regulatory TMC without cleaving the chip surface

B2: Complement Factor I with only an H380R mutation (protein)
chain: B3 chain with H362R, S441Y, A507S
cleavage of chip-bound C3b (SPR) [1]: H380R FI appears to bind to WT FH1-4/C3b without cleaving the C3b coupled chip surface

B7: Complement Factor I, wild type (active) (protein)
chain 1: KVTYTSQEDLVEKKCLAKKYTHLSCDKVFCQPWQRCIEGTCVCKLPYQCPKNGTAVCATNRRSFPTYCQQKSLECLHPGTKFLNNGTCTAEGKFSVSLKHGNTDSEGIVEVKLVDQDKTMFICKSSWSMREANVACLDLGFQQGADTQRRFKLSDLSINSTECLHVHCRGLETSLAECTFTKRRTMGYQDFADVVCYTQKADSPMDDFFQCVNGKYISQMKACDGINDCGDQSDELCCKACQGKGFHCKSGVCIPSQYQCNGEVDCITGEDEVGCAGFASVAQEETEILTADMDAERRRIKSLLPKLSCGVKNRMHI
chain 2: IVGGKRAQLGDLPWQVAIKDASGITCGGIYIGGCWILTAAHCLRASKTHRYQIWTTVVDWIHPDLKRIVIEYVDRIIFHENYNAGTYQNDIALIEMKKDGNKKDCELPRSIPACVPWSPYLFQPNDTCIVSGWGREKDNERVFSLQWGEVKLISNCSKFYGNRFYEKEMECAGTYDGSIDACKGDSGGPLVCMDANNVTYVWGVVSWGENCGKPEFPGVYTKVANYFDWISYHVGRPFISQYNV
cleavage of chip-bound C3b to iC3b (SPR, 25° C.) [1]: the chip was shown to be degraded almost instantaneously after formation of a small amount of TMC (˜3 RU) and conversion of C3b to iC3b
